Data: FireProtDB (doi:10.1021/bi00197a024)
“And” between values parts separate entries of the source, which are not always exact repeats. Equal values may be shown once.

Settings: Saccharomyces cerevisiae (strain ATCC 204508 / S288c), Thermal, DSC, reversible: yes, whole UniProt chain shown

B1: Cytochrome c mitochondrial import factor CYC2 wild type, P38909 (protein)
chain: MLWKNYVLSSSRITRRLHKSPRKSSFSKNFFITGCLLTVGAVSSYLTYRYTSERENKHELSPSYFVKYKISHKRDIDSSHFLLEVTPLFKQKVNIWSLMTAENLWSVEIKQPEVMVVRNYTPLPLKFNPASKEIEILKDGDNADGKLSFYIKKYENGEVARWLHHLPKGHIIEIRGPFIDYEFPHLPNELKRSRDCLYMDNRNERGNNVRENSQFIYQPYDIMMFTAGTGIVTALQLLLTESPFRGTIKLFHTDKNIKQLGPLYPILLRLQASNRVQLKIFETDRQTKQDVLKSIQKSITKPYPYKGLLPFSNVNNKNIMPVLALVCGPESYISSISGRKYDLNQGPVGGLLSKEGWNSDNVYKLS
Tm (pH 3.5, Sodium acetate 0.1 M): 39 °C | unfolding enthalpy (calorimetric) (pH 3.5, Sodium acetate 0.1 M): 53.7 kcal/mol | unfolding enthalpy (van 't Hoff) (pH 3.5, Sodium acetate 0.1 M): 67.7 kcal/mol | Tm (pH 4, Sodium acetate 0.1 M): 43.7 °C | unfolding enthalpy (calorimetric) (pH 4, Sodium acetate 0.1 M): 62.7 kcal/mol | unfolding enthalpy (van 't Hoff) (pH 4, Sodium acetate 0.1 M): 75.9 kcal/mol | Tm (pH 5, Sodium phosphate 0.1 M): 54.9 °C and 53.1 °C | unfolding enthalpy (calorimetric) (pH 5, Sodium phosphate 0.1 M): 73.4 kcal/mol and 71.2 kcal/mol | unfolding enthalpy (van 't Hoff) (pH 5, Sodium phosphate 0.1 M): 93.2 kcal/mol and 92.9 kcal/mol | Tm (pH 6, Sodium phosphate 0.1 M): 54.5 °C | unfolding enthalpy (calorimetric) (pH 6, Sodium phosphate 0.1 M): 67.4 kcal/mol | unfolding enthalpy (van 't Hoff) (pH 6, Sodium phosphate 0.1 M): 91.7 kcal/mol
